The target in assay [1] is ELucC-BMAL1 deletion mutant Bd5 (mouse) (UniProt Q9WTL8). Put plainly: split reporter (BiFC, NanoBiT); Split Luc complementation in living Cos7 cells transfected with ELucN-CK2β and ELucC-BMAL1 (WT or mutant) together with pcDNA, Myc-HA-CRY1, Myc-CRY2 or FLAG-CRY1 (WT or Cd1-4); real-time bioluminescence, averaged peak values.
For assay [2], the target named is ELucC-BMAL1 deletion mutant Bd4 (mouse) (UniProt Q9WTL8). The assay is described as above.
ELucC-BMAL1 deletion mutant Bd4 (mouse), sequence (Q9WTL8 other isoform, or with tags, fused parts or gaps, stated change not applied): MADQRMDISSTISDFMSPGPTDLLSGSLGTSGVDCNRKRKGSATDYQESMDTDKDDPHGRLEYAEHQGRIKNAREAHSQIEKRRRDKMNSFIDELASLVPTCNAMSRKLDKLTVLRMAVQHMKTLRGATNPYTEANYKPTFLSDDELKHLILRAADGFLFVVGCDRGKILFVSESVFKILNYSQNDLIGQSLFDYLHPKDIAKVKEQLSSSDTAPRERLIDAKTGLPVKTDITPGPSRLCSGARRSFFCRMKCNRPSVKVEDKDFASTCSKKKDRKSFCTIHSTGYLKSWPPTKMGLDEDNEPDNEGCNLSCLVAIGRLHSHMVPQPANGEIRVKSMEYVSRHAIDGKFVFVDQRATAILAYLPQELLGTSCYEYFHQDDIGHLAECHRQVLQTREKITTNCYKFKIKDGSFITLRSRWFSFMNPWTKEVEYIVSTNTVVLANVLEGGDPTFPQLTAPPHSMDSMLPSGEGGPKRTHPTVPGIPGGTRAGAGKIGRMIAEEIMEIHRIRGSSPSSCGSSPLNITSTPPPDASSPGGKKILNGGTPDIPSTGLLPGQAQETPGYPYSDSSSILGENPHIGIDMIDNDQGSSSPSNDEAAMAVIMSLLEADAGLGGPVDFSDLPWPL

ELucN-CK2β, sequence (P67870 whole entry): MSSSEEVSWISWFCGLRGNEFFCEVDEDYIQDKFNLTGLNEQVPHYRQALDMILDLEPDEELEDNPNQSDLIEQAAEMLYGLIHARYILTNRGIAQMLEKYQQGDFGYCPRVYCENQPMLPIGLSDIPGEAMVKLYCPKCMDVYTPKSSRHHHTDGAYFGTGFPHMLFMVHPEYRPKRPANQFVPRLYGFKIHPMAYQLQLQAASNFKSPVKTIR
ELucC-BMAL1 deletion mutant Bd5 (mouse), sequence (Q9WTL8 other isoform, or with tags, fused parts or gaps, stated change not applied): as the sequence (Q9WTL8 other isoform, or with tags, fused parts or gaps, stated change not applied) above

With “ELucN-CK2β (from UniProt P67870 1-215) (natural protein)”, in assay [1], the Split Luc bioluminescence, percent of BMAL1-WT came to 30%. Further, the Split Luc bioluminescence, fold of BMAL1-WT in assay [2] was found to be 2 fold.

For the origin of these results see paper PMC4642984.
